System: immune cells
Assay: Inducing activity for interferon-γ in immune cells
Assay type: cell-based
Conditions: IL-12 (positive control) with 40 ng/mL
Description: The herbal extract (prepared by Example 1) was added in T lymphocytes and natural killer cells (NK92) separated from peripheral blood. After 24 hours, the upper-layered solution was collected and the quantity of interferon thereof was measured by ELISA. […] The dosage effect appears in both the T lymphocytes and natural killer cells (NK92). The quantity of interferon-α induced by PC-IL-12 (positive control) and the herbal extract was measured in the same manner. […] Additionally, the quantity of interferon-α produced by inducing T lymphocytes by the herbal extract with 250-1,000 μg/mL was obvious, as shown in FIGS. 2B and 2C.
The inducing activity for interferon-γ of the herbal extract (prepared by Example 3) was tested.

B1: IL-12: IL-12 (positive control) with 40 ng/mL (protein, UniProt P29459 23-219; P29460 23-328, looked up)
Interleukin-12 subunit alpha: RNLPVATPDPGMFPCLHHSQNLLRAVSNMLQKARQTLEFYPCTSEEIDHEDITKDKTSTVEACLPLELTKNESCLNSRETSFITNGSCLASRKTSFMMALCLSSIYEDLKMYQVEFKTMNAKLLMDPKRQIFLDQNMLAVIDELMQALNFNSETVPQKSSLEEPDFYKTKIKLCILLHAFRIRAVTIDRVMSYLNAS
Interleukin-12 subunit beta: IWELKKDVYVVELDWYPDAPGEMVVLTCDTPEEDGITWTLDQSSEVLGSGKTLTIQVKEFGDAGQYTCHKGGEVLSHSLLLLHKKEDGIWSTDILKDQKEPKNKTFLRCEAKNYSGRFTCWWLTTISTDLTFSVKSSRGSSDPQGVTCGAATLSAERVRGDNKEYEYSVECQEDSACPAAEESLPIEVMVDAVHKLKYENYTSSFFIRDIIKPDPPKNLQLKPLKNSRQVEVSWEYPDTWSTPHSYFSLTFCVQVQGKSKREKKDRVFTDKTSATVICRKNASISVRAQDRYYSSSWSEWASVPCS
interferon-γ produced: 50 ± 2.04 pg/mL
